{
  "source": "patent US10874712B2",
  "about": "“Methods, compounds and compositions for modulating blood brain barrier integrity and re-myelination” (University Health Network, priority 2015, dated 2020)",
  "key": {"[1]": {"tested_on": "optic nerves of adult mice", "assay": "Optic nerve crush and regeneration model (GAP43 staining)", "type": "in vivo, mouse", "conditions": "1 μg/ml intraocularly at 3 and 10 days after injury; day 21; vs control proteins", "method": "Optic nerve crush experiments were performed on animals and recovery assessed by staining for axonal fibres. The optic nerves of adult mice were crushed using fine self-closing forceps. sRGMc (1 μg/ml) or control solution was injected intraocularly at 3 and 10 days after injury. Animals were sacrificed at day 21 and optic nerves were dissected and fixed in 4% PFA. The optic nerves were sectioned longitudinally at 14 microns and stained with GAP43 antibody to stain newly regenerating axons."}, "[2]": {"tested_on": "Claudin 5 in b.End3 cells", "assay": "Claudin 5 expression in endothelial cells by Western blot", "type": "cell-based, mouse", "conditions": "incubation with RGM proteins, vs PBS", "method": "Cells were pretreated for 6 h with PBS, RGMc, RGMa or RGMc+RGMa. Western blotting was performed on the lysates with Claudin-5 and GAPDH antibodies.\nNext, the BBB permeability was assessed by injecting mice with BSA, RGMa, RGMa plus RGMc and subsequently followed by assessment of Texas dye leakage using widefield imaging as an indication of BBB integrity. […] Thus, Claudin 5 expression following RGMa/c treatments of murine-derived brain endothelial cells (b.End3) was studied. B.En3 cells were grown up to 80% confluency and were treated with overnight incubation with RGM proteins."}, "[3]": {"molecular_target": "T1, Neogenin (Homo sapiens, UniProt Q92859)", "T1 construct": "His-tagged proteins (2.5 μg/mL of extracellular-Neogenin or sRGMa or sRGMc) were then coated onto each well; His tag (coated format); Alkaline phosphatase (AP) fusion (solution format, Ec-Neogenin-AP); made in house", "T1 sequence (Q92859 34-1105 limits assumed)": "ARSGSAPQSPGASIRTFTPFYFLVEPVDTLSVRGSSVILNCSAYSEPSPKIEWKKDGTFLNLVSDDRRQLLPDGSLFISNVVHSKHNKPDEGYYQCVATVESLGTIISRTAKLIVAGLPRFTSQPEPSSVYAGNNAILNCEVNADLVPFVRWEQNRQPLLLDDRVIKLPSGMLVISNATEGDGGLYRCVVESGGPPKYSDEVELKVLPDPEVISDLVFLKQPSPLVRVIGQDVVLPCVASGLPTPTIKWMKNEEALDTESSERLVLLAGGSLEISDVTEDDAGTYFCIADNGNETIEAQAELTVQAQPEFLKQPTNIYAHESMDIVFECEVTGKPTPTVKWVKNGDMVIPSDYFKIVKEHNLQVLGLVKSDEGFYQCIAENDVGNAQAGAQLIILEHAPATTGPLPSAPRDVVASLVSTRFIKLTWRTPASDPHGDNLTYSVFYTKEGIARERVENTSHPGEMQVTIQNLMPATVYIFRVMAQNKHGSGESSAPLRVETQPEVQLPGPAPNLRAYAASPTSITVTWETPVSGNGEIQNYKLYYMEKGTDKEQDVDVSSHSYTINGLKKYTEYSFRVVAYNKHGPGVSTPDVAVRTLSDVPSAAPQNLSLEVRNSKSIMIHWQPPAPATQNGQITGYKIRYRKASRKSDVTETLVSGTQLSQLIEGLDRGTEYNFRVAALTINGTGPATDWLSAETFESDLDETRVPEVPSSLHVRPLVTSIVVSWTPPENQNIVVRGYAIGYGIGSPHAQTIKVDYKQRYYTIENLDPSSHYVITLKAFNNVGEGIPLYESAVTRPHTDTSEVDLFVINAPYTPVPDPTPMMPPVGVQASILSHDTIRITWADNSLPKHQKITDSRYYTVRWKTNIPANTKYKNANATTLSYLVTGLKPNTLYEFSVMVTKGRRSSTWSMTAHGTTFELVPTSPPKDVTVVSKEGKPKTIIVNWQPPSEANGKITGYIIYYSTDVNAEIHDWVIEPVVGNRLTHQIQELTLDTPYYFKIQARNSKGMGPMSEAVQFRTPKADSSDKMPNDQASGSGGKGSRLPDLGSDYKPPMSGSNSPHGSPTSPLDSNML", "assay": "In vitro competition binding assay (AP-tagged proteins)", "conditions": "competition assay, FIG. 6C", "description": "(C) Binding of Neogenin to bovine serum albumin (Neogenin+BSA), to RGMa (Neogenin+RGMa), and to RGMc (Neogenin+RGMc) in RGMa-AP and in RGMc-AP. Constructs overexpressing His-tagged sRGMa, sRGMc and the extracellular domains of Neogenin (Ec-Neogenin) were coated onto Poly-L-Lysine coated wells. Alkaline Phosphatase (AP)-tagged proteins (EC-Neogenin or RGMa or RGMc) were then added to each well and incubated at 37° C. for 1 h. Each well was washed and equilibrated with AP developing buffer (100 mM NaHCO3, 1 mM MgCl2). The reaction was initiated using AP developing buffer supplemented with p-nitrophenyl phosphate and then stopped following color development by adding 50 μl (0.1M) NaOH. The absorbance of each reaction was measured using a microplate autoreader at 405 nm as described in the Examples. (D) Binding of Neogenin-AP to bovine serum albumin (Neogenin-AP+BSA), to RGMa (Neogenin-AP+RGMa), and to RGMc (Neogenin-AP+RGMc). Competition assay was performed as described in the Examples and above but in which the constructs were reversed.\nUsing a 96-well microtiter plate (Corning), wells coated with 100 μl (10 μg/mL) of Poly-L-Lysine (Sigma-Aldrich) incubated at 4° C. overnight were then washed 3× with 100 μl of PBST (+0.02% Tween-20). […] The absorbance of each reaction was measured using a microplate autoreader (BioTek EL311 AutoReader) at 405 nm."}},
  "data": [
    {"molecule": "sRGMc: truncated form of RGMc with the GPI anchor sequence removed, released as a soluble protein (SEQ ID NOs: 1 and 3) (protein, listed as Homo sapiens) CKILRCNAEYVSSTLSLRGGGSSGALRGGGGGGRGGGVGSGGLCRALRSYALCTRRTARTCRGDLAFHSAVHGIEDLMIQHNCSRQGPTAPPPPRGPALPGAGSGLPAPDPCDYEGRFSRLHGRPPGFLHCASFGDPHVRSFHHHFHTCRVQGAWPLLDNDFLFVQATSSPMALGANATATRKLTIIFKNMQECIDQKVYQAEVDNLPVAFEDGSINGGDRPGGSSLSIQTANPGNHVEIQAAYIGTTIIIRQTAGQLSFSIKVAEDVAMAFSAEQDLQLCVGGCPPSQRLSRSERNRRGAITIDTARRLCKEGLPVEDAYFHSCVFDVLISGDPNFTVAAQAALEDARAFLPDLEKLH", "values": [
      {"measurement": "regeneration of axonal fibres at the site of injury (GAP43)", "setting": "[1]", "result": "promote the regeneration of axonal fibres"},
      {"measurement": "Claudin 5 levels", "setting": "[2]", "result": "did affect Claudin5 levels"},
      {"measurement": "interference with RGMa binding to Neogenin", "setting": "[3]", "result": "interferes with RGMa for its binding to Neogenin"}
    ]}
  ]
}
